Experimental data published in the supplement of paper PMC9170038.

System: MS2 coat protein
Assay: apparent KD of MS2 coat protein; designed switch direction (-1 OFF switch, 1 ON switch): -1; higher = weaker reporter binding
Outline: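 The apparent KD reported per design is the median over clusters of curve fits to normalised cluster fluorescence. The RNA switches were transcribed on Illumina chips by stalled E. coli RNA polymerase. SNAP-549-labelled MS2 coat protein was titrated from 0.7 or 1.5 nM, doubling up to 3 µM, in Tris-HCl pH 7.5 buffer containing KCl, MgCl2, BSA, DTT, tRNA and Tween-20, with no input, 200 uM small-molecule ligand, or an oligonucleotide input.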

[1] = input ligand: microRNA oligo, concentration not stated
[2] = Eterna round: R95, input ligand: microRNA oligo, concentration not stated
[3] = Eterna round: R95, input ligand: FMN 200 uM
[4] = Eterna round: R95, input ligand: none

Row | Sequence | apparent KD of MS2 coat protein (input ligand: FMN 200 uM) | apparent KD of MS2 coat protein (input ligand: none) | apparent KD of MS2 coat protein [1] | apparent KD of MS2 coat protein [2] | apparent KD of MS2 coat protein [3] | apparent KD of MS2 coat protein [4]
1 | AAGUGCGAAGGAUAUACAUGAGGAUCACCCAUGUUCACCAAAACACAGGUCUCAGACUGUAGAAGGUCGCACAG [Eternabot (Original) Solution 45] (Eterna round: R97, puzzle: Exclusion 3) | 605 nM | 59.8 nM | – | – | – | –
2 | GUCUACGCAGGAUAUAUCCCUCAGGACAUGAGGAUCACCCAUGUCUCCUUAUGCCUUCCCAUAGAAGGGCGUAGAA [Eternabot (L1) Solution 82] (Eterna round: R97, puzzle: Exclusion 5) | 12.6 nM | 13.2 nM | – | – | – | –
3 | AGUACAUGAGGAUCACCCAUGUCAGUUAUCAAUGGCACGCCUAAGGAUAUUGAGCGUCAAAGGCUCAAGAAGGUAGCUUUAUGC [Eternabot solution 12] (Eterna round: R96, puzzle: Exclusion NG 3) | 13.7 nM | 25.6 nM | 16.7 nM | – | – | –
4 | GUGUACGCAGGAUAUACAUGAGGAUCACCCAUGUGAAUAAGAUAGAAUAAGAUAAAGUGUAGAAGGGCGAGUGU [Excluse me!!! 5 - Jieux - Exclusion 3] (puzzle: Exclusion 3) | – | – | – | 28.3 nM | – | –
5 | ACGUCCUUGGUAAGGAUAUCGAUGGAGGCGAUCCACGAGAAGGUACAUGAGGAUCACCCAUGUAUACGAAUACG [Eternabot (L1) Solution 94] (Eterna round: R97, puzzle: Brourd's mod of Exclusion 4) | 18.4 nM | 17.8 nM | – | – | – | –
6 | AAAGAAAAGAAAGGAUAUAGCGCAGAACCGCAGCUAGAAGGUUCGGUGGGUAUCCUGUAACAUGAGGAUCACCCAUGUAAAGAG [Tire] (Eterna round: R96, puzzle: Exclusion NG 1) | 69.9 nM | 55.7 nM | 48.7 nM | – | – | –
7 | GCCCUCGCUGAGGAUAUUAUCUGGCUCGACCGAUAAGAAGGCAGUACAUGAGGAUCACCCAUGUGGUUCGUUCG [Polaris46] (Eterna round: R97, puzzle: Exclusion 6) | 97.9 nM | 41 nM | – | – | – | –
8 | GCACGAAGUGUAGGAUAUCUGUGCGAUUAGCUCAGAGAAGGACACAUGAGGAUCACCCAUGUUUUCCGCGGAAGCAAUACGUGC [Eli exng1 - 058] (Eterna round: R96, puzzle: Exclusion NG 1) | 26.5 nM | 17.9 nM | 13.2 nM | – | – | –
9 | AAAUAGAAUGAGGAUAUCGUAUUGUAUUUAGUGCGAGAAGGCAUUACAUGAGGAUCACCCAUGUUUUGUUGGGA [JR_Ex6_Sub003] (Eterna round: R97, puzzle: Exclusion 6) | 89.1 nM | 32.3 nM | – | – | – | –
10 | AAGAUGCGGAUAGGAUAUGGAAAAAAAAAAAAAUUAGAAGGGUUGGUUAAAAUACAUGAGGAUCACCCAUGUGAAUCAUGAGAA [AK ExNG1-2.1] (Eterna round: R96, puzzle: Exclusion NG 1) | 159 nM | 159 nM | 127 nM | – | – | –
11 | GUCCUACAUGAGGAUCACCCAUGUGAGGAUAUGGUUUCGCUGGCCGUAGCCAGUGGAACCAGAAGGCGCAUGAU [Mat - Exclusion 1 - JL Mod - D1] (Eterna round: R97, puzzle: Exclusion 1) | 106 nM | 25.9 nM | – | – | – | –
12 | GGGUUACAUGAGGAUCACCCAUGUGAGGAUAUGAUACUAUGUACUUCGGUACAUAGUAUCAGAAGGCACAUAAA [Ex1-3: 19] (puzzle: Exclusion 1) | – | – | – | 121 nM | – | –
13 | CGAUGAGGAGUGAGGAUAUCGUGUUCGAAAGAACGUGAGAAGGCACAUGAGGAUCACCCAUGUGAUACUUGUCG [Omei Ex4B A15] (Eterna round: R97, puzzle: Brourd's mod of Exclusion 4) | 60.9 nM | 19.6 nM | – | – | – | –
14 | AAUACAAGCUAUUGAUCCCACAUGAGGAUCACCCAUGUAGAUGGCGGUGACACCUCCAUUACGAUAGCUCGUCUUAU [Sensor-V1 #57] (Eterna round: R97, puzzle: Sensor, turn-off variant 1) | 321 nM | 347 nM | – | – | – | –
15 | UUUUUACAUGAGGAUCACCCAUGUCAGGAUAUGCUUAUAUUUUAUUAUUUUAUUUUUUGCAGAAGGGACUAUUA [My solution] (Eterna round: R96, puzzle: Exclusion 1) | 130 nM | 118 nM | 80.4 nM | – | – | –
16 | CUUUAGUGAGGAUAUCGGUAGUAAUACAAUAGUAUUACUACUGAGAAGGCACAUGAGGAUCACCCAUGUUCCUC [Mat - Exclusion 4 - Mod of Omei - D82] (puzzle: Exclusion 4) | – | – | – | 30.2 nM | – | –
17 | GGACCACAUGAGGAUCACCCAUGUCAGGAUAUGACGGCGUCGGCGAAAGCGGAGGCGGUCAGAAGGGACGGAAA [AK-MS2ROC-r4-exclusion1-9.0] (Eterna round: R97, puzzle: Exclusion 1) | 84.6 nM | 34 nM | – | – | – | –

Row | Sequence | apparent KD of MS2 coat protein (input ligand: FMN 200 uM) | apparent KD of MS2 coat protein (input ligand: none) | apparent KD of MS2 coat protein [1] | apparent KD of MS2 coat protein [2] | apparent KD of MS2 coat protein [3] | apparent KD of MS2 coat protein [4]
18 | UACAUGAGGAUCACCCAUGUUUUGUCGUGUAUGGUAUUUAUCUAGGAUAUCAUUUGAUUUAUUUAUGAGAAGGAGAAUAUUAAU [JMF's solution 100] (Eterna round: R96, puzzle: Exclusion NG 3) | 34.3 nM | 29.8 nM | 28.1 nM | – | – | –
19 | GGCAUCGGAGGAUAUACUUAUGGUGAUACCGGAAGCUUUCUACUUGAGGAUCACCCAAGUAGAAGGCCGAUGCC [jl-ex2.4.84 ViennaUCT mod] (Eterna round: R97, puzzle: Exclusion 2) | 9.01 nM | 22.9 nM | – | – | – | –
20 | ACAAGCGAAAGGCUCGUCUUAUUUUUGUAGAGGUCCUAAACAUGAGGAUCACCCAUGUAGUGGCGAUGGUGGAGGUA [JR_SV3TOV2_Sub068] (puzzle: Sensor v3, turn-off variant 2) | – | – | – | 134 nM | 91.2 nM | 103 nM
21 | AUAACGUGGGCGUCCCACGGCAAGCUUUUUGCUCGUUUGACAUGAGGAUCACCCAUGUAGCUGCGGGAUCCCUAUGA [Anatsobe] (puzzle: Sensor v3, turn-off variant 2) | – | – | – | 22.5 nM | 17.6 nM | 15.2 nM
22 | CUAGAUCUUCGGAUCUAGUACAUGAGGAUCACCCAUGUGACGAGUUACAUGUUUUACAAGCUUUUUGCUCGUCUUAU [Sensor v3 - Turn-off variant 1 - 13] (puzzle: Sensor v3, turn-off variant 1) | – | – | – | 90.7 nM | 39.4 nM | 40.5 nM
23 | GUAUCGUGAGGAUAUCAUGAUUGACUUAAUUUAUGUCAGCGUGAGAAGGCACAUGAGGAUCACCCAUGUGAUUA [Ex4 - 3 - 6] (puzzle: Exclusion 4) | – | – | – | 20.5 nM | – | –
24 | GCGUUCUGAGGAUAUACAUGAGGAUCACCCAUGUUGAGAAGAAAGUAUAAAAGAUUGUGUAGAAGGCAGAGUGC [JR_Ex3_Sub070] (Eterna round: R97, puzzle: Exclusion 3) | 112 nM | 38.4 nM | – | – | – | –
25 | UCAUGGUAGCAGGAUAUGCUAGAAAUUUUUUAUGCAGAAGGGCUUACAUGAGGAUCACCCAUGUGUUAGGUCUA [JR_E6_Sub070] (puzzle: Exclusion 6) | – | – | – | 50.8 nM | 47.2 nM | 48.5 nM
26 | GAAGCACAUGAGGAUCACCCAUGUAAGGAUAUAUUUCUGGUCCGGCCGGACCAGUACCGUAGAAGGUAUGUAAA [Excls-IIIa] (puzzle: Exclusion 1) | – | – | – | 11.8 nM | – | –
27 | CAUGUCCAACGAGGAUAUGGGAAAGGAAGUGUACCAGAAGGCGUACGGACAUGAGGAUCACCCAUGUCGCGCGGCGCGAUGUGG [PowerStrip EXNG 1.1] (Eterna round: R96, puzzle: Exclusion NG 1) | 47.6 nM | 41.5 nM | 28.3 nM | – | – | –
28 | AGCCCUGCAGGAUAUGCCCGGGAUAACAUGAGGAUCACCCAUGUGACCGGUUGUUAGACUGCAGAAGGGCAUGGGA [salish99_ex5_r4_302] (Eterna round: R97, puzzle: Exclusion 5) | 14.8 nM | 12.2 nM | – | – | – | –
29 | AGAUCUAGGACAGGAUAUAUGGAUGUCUUCAUCGAAGAUGAAGACAUUACAUGAGGAUCACCCAUGUAGAAGGGUCCUAGAUCA [Omei Exc(NG) 2Av3] (Eterna round: R96, puzzle: Exclusion NG 2) | 17.3 nM | 22.2 nM | 17.5 nM | – | – | –
30 | AAAAUACAUGAGGAUCACCCAUGUAAGGAUAUACGCCUAGUACCGAUGGUACUACAAAGUAGAAGGUACAUGGC [Arma] (puzzle: Exclusion 1) | – | – | – | 12.3 nM | 17.1 nM | 14.1 nM
31 | GCAGAUCACGUGAGGAUAUCGUCUACCUCGGUAGUCGAGAAGGCACAUGAGGAUCACCCAUGUGAGUGAUCUGC [Omei Ex4B B2] (Eterna round: R97, puzzle: Brourd's mod of Exclusion 4) | 13.6 nM | 17.6 nM | – | – | – | –
32 | AACACGGGAGGAUAUGCGACAGGAAACAUGAGGAUCACCCAUGUGGAUGGUCGUACAAACGUAGAAGGCCCGCCCA [Eternabot (Original) Solution 1] (Eterna round: R97, puzzle: Exclusion 5) | 12.9 nM | 15.3 nM | – | – | – | –
33 | AAUACAAGCUAUUGAUCCCACAUGAGGAUCACCCAUGUGCCUGGCCGUGAGACAAGGUUUACAAUAGCUCGUCUUAU [Sensor-V1 #46] (Eterna round: R97, puzzle: Sensor, turn-off variant 1) | 46.1 nM | 44.7 nM | – | – | – | –
34 | CUCGUGUGAGGAUAUUCACACCCGUCAAAACAACGGACAAAGAAGAAGGCACAUGAGGAUCACCCAUGUAAAGA [Usenisor] (Eterna round: R97, puzzle: Exclusion 4) | 92.1 nM | 106 nM | – | – | – | –
